This note sets out measurements from patent US7960349B2 (Bristol-Myers Squibb Company, priority 2006, dated 2011).

*1 amine or outer side, *2 acyl side, *3 side chain or, on linkers, in order; H or OH if unused. Where a SMILES comes first, the peptide text is derived from it. Primed or numbered codes have the meaning given here. Where no end group is shown, it is not given here. [ ]: non-standard residue; d: D form. The star is where a group is joined. ξ: configuration not given here. X1 = 4‑(2′-methylphenyl)‑3‑pyridylalanine, Cc1ccccc1-c1ccncc1C[C@H](N[*:1])C(=O)[*:2]; Bip(2′-Et-4′-OH-5′-I) = CCc1cc(O[*:3])c(I)cc1-c1ccc(C[C@H](N[*:1])C(=O)[*:2])cc1; Ala(6-(2-MePh)pyridin-3-yl) = Cc1ccccc1-c1ccc(C[C@H](N)C(=O)O)cn1; Phe(4-(2-Et-4-HO-Ph)) = CCc1cc(O)ccc1-c1ccc(C[C@H](N)C(=O)O)cc1; Bip(2'-Et-4'-OMe) = CCc1cc(OC)ccc1-c1ccc(C[C@H](N)C(=O)O)cc1; IMeOp = 3-(1H-imidazol-4-yl)-2-methoxypropanoyl; αMePhe(2-F) = C[C@](N)(Cc1ccccc1F)C(=O)O; ξαMePhe(2-F) = CC(N)(Cc1ccccc1F)C(=O)O; αMeP = C[C@@]1(C(=O)O)CCCN1; ξαMeP = CC1(C(=O)O)CCCN1; Moc = COC(=O)*

Data set [1] addresses T1, Human GLP-1 Receptor (Homo sapiens, UniProt P43220).
T1 construct: Full-length human glucagon-like peptide 1 receptor was stably expressed in CHO-K1 cells; expressed in transfected cells; host or cells: CHO-K1 (clone CHO-GLP1R-19)
The experiment in a line: Cyclic AMP determination in CHO cells expressing human GLP-1 receptor. Particulars: human GLP-1 receptor. Format: cell-based. As for the experimental part:
CHO-GLP-1R-19 cells (20,000 in 100 μl of media) were plated into each well of a 96-well tissue culture microtiter plate and incubated overnight in a 5% CO2 atmosphere at 37° C. On the day of the assay, cells were washed once with 100 μl of phosphate-buffered saline (PBS). A Biomek 2000 was used to serially dilute all peptides prior to beginning the assay. Serial dilutions were carried out in 100% DMSO.
50 μl of each cAMP standard was added by hand and 70 μl of mix reagent (Amersham cAMP SPA kit) was added using the multidrop. […] This standard curve was used to convert CPM to pmol of cAMP.
Cell plates and peptide plates were loaded onto the Platemate. The media was aspirated from the wells and discarded. 100 uL per well of the peptide/buffer mixture were then added from the peptide plates to initiate the assay. After 30 min. of incubation the peptide/buffer was removed and 50 uL of the lysis reagent 1 solution was added per well. The plate was kept for one hour at RT or overnight if refrigerated and sealed.
Dose dependence for Compounds was determined at half-log concentrations in duplicate. […] A standard curve was determined using known amounts of cyclic AMP. […] The data were analyzed by nonlinear regression curve fitting (4 parameter sigmoidal dose-response curve) to determine the EC50 of the compounds.

Data set [2] is described as follows: Dog pharmacokinetic study. Format: in vivo. The conditions noted are these: sc 67 μg/kg; vehicle propylene glycol/pH 7.4 phosphate buffer (1:1). How it is done:
The pharmacokinetic parameters of the Compounds of SEQ ID NO: 9, 118, 151 and 158 were determined in male beagle dogs (n=3-4, 14±1 kg). Following an overnight fast, each animal received the Compounds of SEQ ID NO: 9, 118, 151 and 158 either as an intravenous bolus via femoral vein (67 μg/kg) or by subcutaneous injection given at near the shoulder blades (67 μg/kg). Each animal received both intravenous and subcutaneous doses with a one-week washout between doses following a crossover design. The dosing vehicle for both routes of administration was propylene glycol:pH 7.4 phosphate buffer (50:50) or 0.2 M Tris (pH 8.0). Serial blood samples were collected in EDTA-containing microcentrifuge tubes at predose, 0.083, 0.25, 0.5, 0.75, 1, 2, 4, 6, 8, 24, and 30 hours post-dose after intravenous administration; at predose, 0.25, 0.5, 0.75, 1, 2, 4, 6, 8, 24, and 30 hours post-dose after subcutaneous administration. Approximately 0.3 mL of blood was collected at each time point. Blood samples were immediately centrifuged at 4° C. The obtained plasma was frozen with dry ice and stored at −20° C. Plasma drug levels were determined using the LC-MS/MS assay described below.
Plasma samples from the in vivo dog study were prepared for analysis by precipitating plasma proteins with two volumes of AcCN containing an internal standard. The samples were vortex mixed and the precipitated proteins were removed by centrifugation. The resulting supernatants were transferred to a 96-well plate and 10 μL were injected for TFC-LC/MS/MS analysis.
The TFC-HPLC system (Cohesive TX-1 Flux, Aria 2300 System) consisted of a loading pump, an eluting pump, and a CTC PAL autosampler (Cohesive Technologies, Franklin, Mass.). The columns used were Phenomenex Synergi Fusion-RP (C18, 2.0×50 mm, 4μ) (Phenomenex, Torrance, Calif.) as the analytical column and Turbo-Flow (TF) HTLC Cyclone column (0.5×50 mm) (Cohesive Technologies, Franklin, Mass.) as the extraction column for on-line sample processing. The mobile phase A consisted of 10 mM ammonium formate and 0.1% formic acid in water and mobile phase B consisted of 0.1% formic acid in AcCN. Turbo-Flow Chromatography was used to obtain a cleaner sample. A rapid gradient elution was used for analyte separation. The samples were injected onto the Turbo-Flow HTLC Cyclone column and analytes were separated from biological fluid components with using 100% H2O at 1.5 mL/min. The TF column was back flushed and analytes were back eluted from the TF to HPLC analytical column using a ramp to 60% B over 2 min and held there for 30 seconds at 0.3 mL/min to separate and to elute the analytes from the HPLC column into the mass spectrometer. Both columns were washed for an additional minute and then both columns were re-equilibrated at initial conditions.
The HPLC was interfaced to a Sciex API 4000 mass spectrometer (Applied Biosystems, Foster City, Calif.) and was equipped with a TurboIonspray ionization source. Ultra high purity nitrogen was used as the nebulizing and turbo-gas. The temperature of turbo-gas was set at 300° C. and the interface heater was set at 60° C. Selected Reaction Monitoring (SRM) was used for data acquisition. Multiple charged ion species, i.e. (M+2H)^2+ for Compound of SEQ ID NO: 158 were selected in Q1 and were collisionally dissociated with high purity nitrogen at a pressure of 3.5×10^−3 torr in Q2 to form specific product ions which were subsequently monitored in Q3. The ion transitions and voltages are summarized below (Table 4).
The standard curve concentrations, ranging from 1 to 1000 nM, were analyzed in duplicate. The curves were fitted with a linear regression weighted by reciprocal concentration […]. Quality control (QC) samples, prepared in blank matrix at the same concentrations as the standards were also analyzed in each analytical set. […]

The subject of data set [3] is ob/ob mice. The experiment in a line: Intraperitoneal glucose tolerance test (ipGTT) in ob/ob mice after sc injection. Format: in vivo, mouse. Particulars: 10 nmol/kg sc; relative to vehicle-treated group. As for the experimental part: Peptides were dissolved in an appropriate vehicle at a concentration in nmol/ml equivalent to the dose that was to be administered in nmol/kg so that each mouse would receive the same volume/weight of dosing solution. Male C57BL/6-ob/ob mice (10 weeks old) were randomized into groups of 6 mice per group based on fed plasma glucose and body weight. After an overnight fast, mice were weighed and placed in the experimental lab. After 30 min in the environment, the mice were bled via tail tip at −30 min and immediately injected subcutaneously (sc) with vehicle or the peptide dissolved in vehicle (0.1 ml solution/100 g body weight). At time 0 the mice were bled and then injected intraperitoneally with 50% glucose (2 g/kg) to initiate the intraperitoneal glucose tolerance test (ipGTT). The mice were bled 30, 60, 120 and 180 min after the glucose injection. Blood samples were drawn into potassium EDTA, placed on ice during the study and subsequently centrifuged for 10 min at 3000 rpm at 4° C. Plasma samples were diluted 11-fold for glucose analysis in the Cobas System. Another 5 μl plasma sample was diluted 5-fold with 20 μl of Sample Diluent (Insulin ELISA assay kit, Crystal Chem. Inc.) and stored at −20° C. for subsequent analysis using the Ultra Sensitive Mouse Insulin ELISA kit (Crystal Chem Inc.).

Data set [4] concerns the target T2, Mouse GLP-1 Receptor (mouse, UniProt O35659 22-463).
T2 sequence (looked up): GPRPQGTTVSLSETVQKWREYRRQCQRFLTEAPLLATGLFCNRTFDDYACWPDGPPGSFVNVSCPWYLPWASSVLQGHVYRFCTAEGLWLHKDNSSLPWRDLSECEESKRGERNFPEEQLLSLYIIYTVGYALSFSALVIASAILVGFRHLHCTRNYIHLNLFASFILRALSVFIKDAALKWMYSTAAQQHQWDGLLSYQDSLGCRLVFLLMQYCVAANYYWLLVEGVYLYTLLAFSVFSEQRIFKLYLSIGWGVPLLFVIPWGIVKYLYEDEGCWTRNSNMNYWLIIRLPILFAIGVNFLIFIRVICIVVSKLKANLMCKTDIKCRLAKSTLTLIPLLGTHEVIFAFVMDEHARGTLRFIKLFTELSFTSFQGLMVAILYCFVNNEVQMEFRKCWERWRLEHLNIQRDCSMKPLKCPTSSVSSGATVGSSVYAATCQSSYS
The experiment in a line: cell-based or functional assay.

Data set [5] deals with Full-length human glucagon-like peptide 1 receptor (human, UniProt P43220 24-463). The experiment in a line: cell-based or functional assay.

T1 sequence (P43220 24-463): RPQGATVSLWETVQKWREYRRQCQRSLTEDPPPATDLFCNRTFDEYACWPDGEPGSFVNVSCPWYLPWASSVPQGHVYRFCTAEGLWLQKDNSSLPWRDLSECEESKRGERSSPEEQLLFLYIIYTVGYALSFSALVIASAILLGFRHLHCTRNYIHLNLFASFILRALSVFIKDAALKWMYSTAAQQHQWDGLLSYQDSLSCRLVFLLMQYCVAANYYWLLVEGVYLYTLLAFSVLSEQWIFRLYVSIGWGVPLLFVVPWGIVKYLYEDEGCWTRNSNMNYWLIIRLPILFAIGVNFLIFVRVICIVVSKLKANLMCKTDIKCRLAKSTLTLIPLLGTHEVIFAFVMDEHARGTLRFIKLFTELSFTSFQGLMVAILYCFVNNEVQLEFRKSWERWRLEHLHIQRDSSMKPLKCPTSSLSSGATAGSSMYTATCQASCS

Broadly, the Emax is the maximal effect, on the per cent scale that the assay sets. `CCc1cc(O)ccc1-c1ccc(C[C@H](NC(=O)[C@H](CC(=O)O)NC(=O)[C@H](Cc2c[nH]cn2)NC(=O)[C@@H](NC(=O)C(C)(Cc2ccccc2F)NC(=O)[C@@H](NC(=O)CNC(=O)[C@H](CCC(=O)O)NC(=O)C2(C)CCCN2C(=O)[C@H](Cc2c[nH]cn2)NC(=O)OC)[C@@H](C)O)[C@@H](C)O)C(=O)N[C@@H](Cc2ccc(-c3ccccc3C)nc2)C(N)=O)cc1` (stereo partly drawn) [SEQ ID NO: 157] (Moc-H[ξαMeP]EGT[ξαMePhe(2-F)]THD[Phe(4-(2-Et-4-HO-Ph))][Ala(6-(2-MePh)pyridin-3-yl)]-NH2) had an Emax in data set [1] (CHO, percent of maximal GLP-1 stimulated activity) of 99.4%. Also, in data set [1], the “Mean Hill” value turned out to be 1.9.

For `CCc1cc(OC)ccc1-c1ccc(C[C@H](NC(=O)[C@H](CC(=O)O)NC(=O)[C@H](CO)NC(=O)[C@@H](NC(=O)C(C)(Cc2ccccc2F)NC(=O)[C@@H](NC(=O)CNC(=O)[C@H](CCC(=O)O)NC(=O)C2(C)CCCN2C(=O)[C@H](Cc2c[nH]cn2)NC(=O)OC)[C@@H](C)O)[C@@H](C)O)C(=O)N[C@@H](Cc2ccc(-c3ccccc3C)nc2)C(N)=O)cc1` (stereo partly drawn) [SEQ ID NO: 139] (Moc-H[ξαMeP]EGT[ξαMePhe(2-F)]TSD[Bip(2'-Et-4'-OMe)][Ala(6-(2-MePh)pyridin-3-yl)]-NH2), in data set [2], the “Exposure in dogs (sc@67 μg/kg)” value turned out to be 1.603 µM·h. The “Potency in ob/ob mice: % AUC Reduction in Plasma Glucose in an IP Glucose Tolerance Test after SC Injection of Compound” value in data set [3] is given as −63% (p < 0.01).

B1: Compound of SEQ ID NO: 176 (or 175)* (peptide)
peptide: [IMeOp][αMeP]EGT[αMePhe(2-F)]THD[Phe(4-(2-Et-4-HO-Ph))][X1]-NH2
modifications: also: IMeOp configuration (S or R) not determined
As to B1, in data set [4], the “Mean EC50 (nM), stimulation of cAMP synthesis in CHO cells” value (from here on “Mean EC50 (nM), stimulation”) is 0.126 nM and the “Mean Emax (%), stimulation of cAMP synthesis in CHO cells” value (from here on “Mean Emax (%), stimulation”) is 105%. For the same molecule, in data set [5], the “Mean EC50 (nM), stimulation” value came out at 0.03 nM and the “Mean Emax (%), stimulation” value amounted to 95.8%.

B2: Compound of SEQ ID NO: 175 (or 176)* (peptide)
peptide: [IMeOp][αMeP]EGT[αMePhe(2-F)]THD[Phe(4-(2-Et-4-HO-Ph))][X1]-NH2
modifications: also: IMeOp configuration (R or S) not determined
As to B2, in data set [4], the “Mean EC50 (nM), stimulation” value turned out to be 0.084 nM and the “Mean Emax (%), stimulation” value was found to be 100%. Also, in data set [5], the “Mean EC50 (nM), stimulation” value is 0.03 nM and the “Mean Emax (%), stimulation” value was determined as 105%.

B3: Compound of SEQ ID NO: 157 (peptide)
peptide: Moc-H[αMeP]EGT[αMePhe(2-F)]THD[Phe(4-(2-Et-4-HO-Ph))][X1]-NH2
Turning to B3, in data set [5], the “Mean EC50 (nM), stimulation” value was found to be 0.026 nM and the “Mean Emax (%), stimulation” value is 99.4%.

B4: Compound of SEQ ID NO: 174 (or 173)* (peptide)
peptide: [IMeOp][αMeP]EGT[αMePhe(2-F)]TSD[Phe(4-(2-Et-4-HO-Ph))][X1]-NH2
modifications: also: IMeOp configuration (S or R) not determined
For the molecule B4, in data set [4], the “Mean EC50 (nM), stimulation” value stood at 0.273 nM and the “Mean Emax (%), stimulation” value amounted to 105%. In data set [5], the “Mean EC50 (nM), stimulation” value was 0.024 nM and the “Mean Emax (%), stimulation” value came to 104%.

B5: Compound of SEQ ID NO: 164 (peptide)
peptide: Moc-H[αMeP]EGT[αMePhe(2-F)]TSD[Bip(2′-Et-4′-OH-5′-I)][X1]-NH2
For B5, the figures for the “Mean EC50 (nM), stimulation” value in data set [4] and in data set [5] were 0.055 nM and 0.01 nM, respectively. Also, the “Mean Emax (%), stimulation” value in data set [4] was 103%; in data set [5], 97.2%.

B6: Compound of SEQ ID NO: 173 (or 174)* (peptide)
peptide: [IMeOp][αMeP]EGT[αMePhe(2-F)]TSD[Phe(4-(2-Et-4-HO-Ph))][X1]-NH2
modifications: also: IMeOp configuration (R or S) not determined
On to B6, for which, in data set [4], the “Mean EC50 (nM), stimulation” value was found to be 0.114 nM and the “Mean Emax (%), stimulation” value was determined as 99.7%. For the same molecule, in data set [5], the “Mean EC50 (nM), stimulation” value turned out to be 0.018 nM and the “Mean Emax (%), stimulation” value came to 95.6%.

B7: Compound of SEQ ID NO: 158 (peptide)
peptide: Moc-H[αMeP]EGT[αMePhe(2-F)]TSD[Phe(4-(2-Et-4-HO-Ph))][X1]-NH2
B7: in data set [4], the “Mean EC50 (nM), stimulation” value was 0.191 nM and the “Mean Emax (%), stimulation” value turned out to be 101%. In addition, in data set [5], the “Mean EC50 (nM), stimulation” value is 0.018 nM and the “Mean Emax (%), stimulation” value is 101%.
